In experiment [1] the target is unmodified nucleosome (Xenopus). The experiment is described as follows: native gel or EMSA. In general terms: In EMSA bound probe runs differently from free probe, usually more slowly.
For experiment [2], the target named is H4K16ac nucleosome (Xenopus | not stated). In words: native gel or EMSA.

In the case of “catalytic domain of yeast Dot1 (residues 158 to 582) (from UniProt Q04089 158-582) (domain or fragment)”, the Kd in experiment [1] is 70.8 nM; in experiment [2] it was 83.3 nM.

In general, Kd refers to the concentration at which binding is half-saturated. Read a low Kd as higher affinity.

Values taken from article PMC8279004.
